Target: the molecule itself
Experiment: SEC

B1: His-MBP-VWA (hCLCA1 von Willebrand factor type A domain construct, amino acids 240-544) (domain or fragment, human, UniProt A8K7I4 240-544, looked up)
chain: AQHVDSIVEFCTEQNHNKEAPNKQNQKCNLRSTWEVIRDSEDFKKTTPMTTQPPNPTFSLLQIGQRIVCLVLDKSGSMATGNRLNRLNQAGQLFLLQTVELGSWVGMVTFDSAAHVQNELIQINSGSDRDTLAKRLPAAASGGTSICSGLRSAFTVIRKKYPTDGSEIVLLTDGEDNTISGCFNEVKQSGAIIHTVALGPSAAQELEELSKMTGGLQTYASDQVQNNGLIDAFGALSSGNGAVSQRSIQLESKGLTLQNSQWMNGTVIVDSTVGKDTLFLITWTMQPPQILLWDPSGQKQGGFVV
  stoichiometry N: 2
